According to article PMC8406658:

Experiments:
[1] = target: Fc-tagged ACE2 recombinant protein (human) (UniProt Q9BYF1); experiment: BLI
[2] = target: ACE2 (angiotensin-converting enzyme II receptor), full length, expressed on U937 cells (human) (UniProt Q9BYF1); experiment: adhesion frequency assay (micropipette)

Which results are given for “SARS2-RBD^WT (receptor-binding domain of the SARS-CoV-2 spike, residues 333-527) (domain or fragment; other documents disagree on this pair)”?
Kd [1]: 0.0667 µM; koff [1]: 0.0121 s⁻¹; kon [1]: 181000 M⁻¹ s⁻¹; koff [2]: 0.0569 s⁻¹
